Assays:
Assay in all cases: BioID-MS
PPA2 (human) = PPA2 (human) (UniProt Q9H2U2)
MRPL40 (human) = MRPL40 (human) (UniProt Q9NQ50)
C2orf56 (human) = C2orf56 (human) (UniProt Q7L592)
SDHAF3 (human) = SDHAF3 (human) (UniProt Q9NRP4)
ECSIT (human) = ECSIT (human) (UniProt Q9BQ95)
MTRF1 (human) = MTRF1 (human) (UniProt O75570)
MRPS6 (human) = MRPS6 (human) (UniProt P82932)
HSDL2 (human) = HSDL2 (human) (UniProt Q6YN16)
TFAM (human) = TFAM (human) (UniProt Q00059)
PDIA3 (human) = PDIA3 (human) (UniProt P30101)
Sequence of PDIA3 (human) (P30101 25-505 limits assumed): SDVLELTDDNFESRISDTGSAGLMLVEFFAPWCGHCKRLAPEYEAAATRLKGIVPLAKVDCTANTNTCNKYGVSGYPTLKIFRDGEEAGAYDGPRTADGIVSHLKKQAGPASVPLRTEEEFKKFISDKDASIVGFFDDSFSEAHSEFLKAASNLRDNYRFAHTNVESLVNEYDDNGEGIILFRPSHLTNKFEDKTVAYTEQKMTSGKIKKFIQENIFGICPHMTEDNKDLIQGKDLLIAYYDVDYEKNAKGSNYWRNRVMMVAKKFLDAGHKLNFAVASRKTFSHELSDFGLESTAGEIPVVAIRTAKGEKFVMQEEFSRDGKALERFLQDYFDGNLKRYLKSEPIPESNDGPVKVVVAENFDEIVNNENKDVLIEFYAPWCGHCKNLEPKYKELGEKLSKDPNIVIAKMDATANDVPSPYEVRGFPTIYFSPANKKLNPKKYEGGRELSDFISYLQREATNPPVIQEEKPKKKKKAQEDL

MRPL14 (human) = MRPL14 (human) (UniProt Q6P1L8)
ACAA2 (human) = ACAA2 (human) (UniProt P42765)
NDUFAF3 (human) = NDUFAF3 (human) (UniProt Q9BU61)
TAC01 (human) = TAC01 (human) (UniProt Q9BSH4)
MRPS25 (human) = MRPS25 (human) (UniProt P82663)
TARS2 (human) = TARS2 (human) (UniProt Q9BW92)
Sequence of TARS2 (human) (Q9BW92 whole entry): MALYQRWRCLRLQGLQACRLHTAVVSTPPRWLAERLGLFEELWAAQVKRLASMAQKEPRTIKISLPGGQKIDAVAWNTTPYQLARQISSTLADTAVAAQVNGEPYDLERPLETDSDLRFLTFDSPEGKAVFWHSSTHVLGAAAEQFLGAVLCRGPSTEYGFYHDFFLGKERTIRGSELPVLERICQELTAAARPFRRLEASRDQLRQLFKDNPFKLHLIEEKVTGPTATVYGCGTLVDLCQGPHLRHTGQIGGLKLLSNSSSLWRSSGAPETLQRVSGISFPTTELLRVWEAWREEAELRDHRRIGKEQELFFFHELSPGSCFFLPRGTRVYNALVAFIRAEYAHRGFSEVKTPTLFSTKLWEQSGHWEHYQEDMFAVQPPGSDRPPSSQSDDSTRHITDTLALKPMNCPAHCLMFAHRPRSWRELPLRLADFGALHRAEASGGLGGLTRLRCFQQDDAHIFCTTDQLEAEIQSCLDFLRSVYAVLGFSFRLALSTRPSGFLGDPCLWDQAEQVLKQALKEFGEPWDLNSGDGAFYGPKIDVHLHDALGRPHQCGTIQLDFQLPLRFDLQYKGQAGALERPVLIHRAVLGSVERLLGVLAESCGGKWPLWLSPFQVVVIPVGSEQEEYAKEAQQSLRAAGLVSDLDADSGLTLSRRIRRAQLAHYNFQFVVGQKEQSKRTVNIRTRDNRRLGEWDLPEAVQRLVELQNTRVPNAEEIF

FMC1 (human) = FMC1 (human) (UniProt Q96HJ9)
ATPAF2 (human) = ATPAF2 (human) (UniProt Q8N5M1)
T1MM44 (human) = T1MM44 (human) (UniProt O43615)
ERAL1 (human) = ERAL1 (human) (UniProt O75616)
RG9MTD1 (human) = RG9MTD1 (human) (UniProt Q7L0Y3)
POLG2 (human) = POLG2 (human) (UniProt Q9UHN1)
SUCLG1 (human) = SUCLG1 (human) (UniProt P53597)
Sequence of SUCLG1 (human) (P53597 41-346 limits assumed): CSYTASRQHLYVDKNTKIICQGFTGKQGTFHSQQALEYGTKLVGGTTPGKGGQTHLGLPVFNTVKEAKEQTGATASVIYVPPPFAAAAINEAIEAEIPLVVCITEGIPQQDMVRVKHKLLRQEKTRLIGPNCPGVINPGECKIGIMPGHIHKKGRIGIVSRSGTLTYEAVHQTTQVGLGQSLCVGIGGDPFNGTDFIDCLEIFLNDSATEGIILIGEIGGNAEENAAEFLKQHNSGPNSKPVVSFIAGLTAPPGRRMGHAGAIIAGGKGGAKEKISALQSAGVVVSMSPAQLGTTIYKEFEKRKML

MRPL19 (human) = MRPL19 (human) (UniProt P49406)
MRPS15 (human) = MRPS15 (human) (UniProt P82914)
MRPL48 (human) = MRPL48 (human) (UniProt Q96GC5)
LETM1 (human) = LETM1 (human) (UniProt O95202)
NUDT19 (human) = NUDT19 (human) (UniProt A8MXV4)
NDUFA2 (human) = NDUFA2 (human) (UniProt O43678)
Sequence of NDUFA2 (human) (O43678 2-99 limits assumed): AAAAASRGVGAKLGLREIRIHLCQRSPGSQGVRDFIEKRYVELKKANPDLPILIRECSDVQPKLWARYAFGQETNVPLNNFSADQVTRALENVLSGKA

COX5B (human) = COX5B (human) (UniProt P10606)
CARS2 (human) = CARS2 (human) (UniProt Q9HA77)
Sequence of CARS2 (human) (Q9HA77 whole entry): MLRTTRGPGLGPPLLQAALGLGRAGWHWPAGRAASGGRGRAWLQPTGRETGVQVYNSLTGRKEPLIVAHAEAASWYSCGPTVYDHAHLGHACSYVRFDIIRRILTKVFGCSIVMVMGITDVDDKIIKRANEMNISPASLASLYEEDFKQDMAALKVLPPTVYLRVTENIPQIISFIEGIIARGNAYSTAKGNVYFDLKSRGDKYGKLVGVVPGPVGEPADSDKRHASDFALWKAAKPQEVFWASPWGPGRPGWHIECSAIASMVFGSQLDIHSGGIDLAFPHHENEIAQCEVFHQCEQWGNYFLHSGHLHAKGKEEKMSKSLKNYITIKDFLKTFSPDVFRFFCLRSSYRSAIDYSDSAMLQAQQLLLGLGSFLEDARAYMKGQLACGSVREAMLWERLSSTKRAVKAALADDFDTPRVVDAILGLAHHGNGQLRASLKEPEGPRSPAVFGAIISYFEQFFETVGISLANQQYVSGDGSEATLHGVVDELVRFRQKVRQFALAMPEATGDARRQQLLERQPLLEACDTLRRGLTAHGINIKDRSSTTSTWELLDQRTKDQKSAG

IARS2 (human) = IARS2 (human) (UniProt Q9NSE4)
ALDH2 (human) = ALDH2 (human) (UniProt P05091)
SSBP1 (human) = SSBP1 (human) (UniProt Q04837)
WARS2 (human) = WARS2 (human) (UniProt Q9UGM6)
MRPL12 (human) = MRPL12 (human) (UniProt P52815)
ACADSB (human) = ACADSB (human) (UniProt P45954)
PET112 (human) = PET112 (human) (UniProt O75879)
NME4 (human) = NME4 (human) (UniProt O00746)
MRPL10 (human) = MRPL10 (human) (UniProt Q7Z7H8)
PAM16 (human) = PAM16 (human) (UniProt Q9Y3D7)
NDUFS4 (human) = NDUFS4 (human) (UniProt O43181)
Sequence of NDUFS4 (human) (O43181 43-175 limits assumed): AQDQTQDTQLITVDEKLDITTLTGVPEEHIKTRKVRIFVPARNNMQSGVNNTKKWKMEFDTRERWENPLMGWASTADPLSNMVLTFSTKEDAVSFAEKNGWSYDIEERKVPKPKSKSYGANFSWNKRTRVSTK

NDUFV3 (human) = NDUFV3 (human) (UniProt P56181)
Sequence of NDUFV3 (human) (P56181 35-108 limits assumed): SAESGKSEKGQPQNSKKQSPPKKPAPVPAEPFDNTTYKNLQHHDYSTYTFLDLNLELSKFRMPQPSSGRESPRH

AARS2 (human) = AARS2 (human) (UniProt Q5JTZ9)
ARG2 (human) = ARG2 (human) (UniProt P78540)
LARS2 (human) = LARS2 (human) (UniProt Q15031)
DCAKD (human) = DCAKD (human) (UniProt Q8WVC6)
Sequence of DCAKD (human) (Q8WVC6 whole entry): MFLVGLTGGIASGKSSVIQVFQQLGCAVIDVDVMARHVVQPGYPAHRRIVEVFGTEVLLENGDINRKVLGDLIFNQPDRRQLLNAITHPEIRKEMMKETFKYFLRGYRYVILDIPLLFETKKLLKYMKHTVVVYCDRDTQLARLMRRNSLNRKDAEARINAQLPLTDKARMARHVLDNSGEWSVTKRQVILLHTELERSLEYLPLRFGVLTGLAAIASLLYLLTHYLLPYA

ACADM (human) = ACADM (human) (UniProt P11310)
LYRM7 (human) = LYRM7 (human) (UniProt Q5U5X0)
K1AA0564 (human) = K1AA0564 (human) (UniProt A3KMH1)
Sequence of K1AA0564 (human) (A3KMH1 29-1905 limits assumed): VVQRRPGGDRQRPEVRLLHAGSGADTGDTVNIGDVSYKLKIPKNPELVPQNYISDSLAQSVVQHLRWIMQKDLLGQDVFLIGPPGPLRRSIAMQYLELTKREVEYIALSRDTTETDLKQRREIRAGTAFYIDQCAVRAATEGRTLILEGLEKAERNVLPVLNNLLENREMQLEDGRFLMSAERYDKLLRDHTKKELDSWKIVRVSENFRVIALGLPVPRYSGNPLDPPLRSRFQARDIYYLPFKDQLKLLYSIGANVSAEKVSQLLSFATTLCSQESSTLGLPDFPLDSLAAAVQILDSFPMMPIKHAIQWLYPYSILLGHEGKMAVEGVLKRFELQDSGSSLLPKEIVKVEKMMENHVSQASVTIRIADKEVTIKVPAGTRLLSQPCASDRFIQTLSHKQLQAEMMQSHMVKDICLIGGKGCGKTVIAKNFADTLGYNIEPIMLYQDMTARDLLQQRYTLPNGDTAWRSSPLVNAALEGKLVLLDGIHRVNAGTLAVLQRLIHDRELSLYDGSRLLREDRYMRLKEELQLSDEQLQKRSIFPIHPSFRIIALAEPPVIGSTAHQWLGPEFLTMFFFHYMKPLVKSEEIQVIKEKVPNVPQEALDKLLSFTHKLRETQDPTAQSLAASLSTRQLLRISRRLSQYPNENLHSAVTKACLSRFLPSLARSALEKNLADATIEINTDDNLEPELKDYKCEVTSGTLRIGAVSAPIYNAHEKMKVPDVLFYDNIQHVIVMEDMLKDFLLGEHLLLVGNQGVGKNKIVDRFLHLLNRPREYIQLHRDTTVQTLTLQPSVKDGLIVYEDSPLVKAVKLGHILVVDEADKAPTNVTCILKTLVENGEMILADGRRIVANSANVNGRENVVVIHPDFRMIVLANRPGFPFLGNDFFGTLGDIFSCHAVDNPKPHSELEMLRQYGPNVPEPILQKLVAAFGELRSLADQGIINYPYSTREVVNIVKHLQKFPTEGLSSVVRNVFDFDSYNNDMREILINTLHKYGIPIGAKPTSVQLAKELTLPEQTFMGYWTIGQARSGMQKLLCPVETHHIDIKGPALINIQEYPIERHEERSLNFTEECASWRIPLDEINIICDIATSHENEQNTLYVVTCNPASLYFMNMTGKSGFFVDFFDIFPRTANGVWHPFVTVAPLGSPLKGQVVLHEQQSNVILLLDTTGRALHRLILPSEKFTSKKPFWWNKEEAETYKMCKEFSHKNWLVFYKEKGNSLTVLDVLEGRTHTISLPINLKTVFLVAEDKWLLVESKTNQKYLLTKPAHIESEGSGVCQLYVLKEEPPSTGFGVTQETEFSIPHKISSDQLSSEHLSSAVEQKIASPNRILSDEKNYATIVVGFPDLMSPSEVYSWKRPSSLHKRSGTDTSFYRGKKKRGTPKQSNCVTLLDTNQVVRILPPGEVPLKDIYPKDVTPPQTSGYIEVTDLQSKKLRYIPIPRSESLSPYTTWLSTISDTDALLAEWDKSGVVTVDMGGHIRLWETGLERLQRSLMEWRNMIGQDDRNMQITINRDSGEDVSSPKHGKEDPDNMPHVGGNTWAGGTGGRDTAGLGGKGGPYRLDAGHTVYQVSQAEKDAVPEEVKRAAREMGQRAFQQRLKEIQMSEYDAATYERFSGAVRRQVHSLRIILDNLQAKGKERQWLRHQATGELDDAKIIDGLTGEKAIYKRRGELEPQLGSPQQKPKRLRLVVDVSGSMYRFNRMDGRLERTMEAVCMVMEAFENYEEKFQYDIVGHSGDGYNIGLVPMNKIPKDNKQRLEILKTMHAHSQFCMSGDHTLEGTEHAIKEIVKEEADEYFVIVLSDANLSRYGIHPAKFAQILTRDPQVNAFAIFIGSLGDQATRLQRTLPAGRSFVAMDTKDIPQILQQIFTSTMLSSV

SLC27A2 (human) = SLC27A2 (human) (UniProt O14975)
NARS2 (human) = NARS2 (human) (UniProt Q96I59)
PCK2 (human) = PCK2 (human) (UniProt Q16822)
PDPR (human) = PDPR (human) (UniProt Q8NCN5)
COX4I1 (human) = COX4I1 (human) (UniProt P13073)
NADK2 (human) = NADK2 (human) (UniProt Q4G0N4)
CHCHD3 (human) = CHCHD3 (human) (UniProt Q9NX63)
IDI1 (human) = IDI1 (human) (UniProt Q13907)

Sequence of PPA2 (human) (Q9H2U2 33-334 limits assumed): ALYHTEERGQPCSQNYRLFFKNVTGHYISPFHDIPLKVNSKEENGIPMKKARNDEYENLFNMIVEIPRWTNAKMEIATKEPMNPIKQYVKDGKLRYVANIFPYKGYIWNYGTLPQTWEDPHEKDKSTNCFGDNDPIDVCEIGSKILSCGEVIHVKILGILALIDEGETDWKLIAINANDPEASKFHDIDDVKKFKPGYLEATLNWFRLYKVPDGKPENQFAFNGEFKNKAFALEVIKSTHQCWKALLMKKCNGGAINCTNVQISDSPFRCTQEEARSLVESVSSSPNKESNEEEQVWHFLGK
Sequence of SDHAF3 (human) (Q9NRP4 31-125 limits assumed): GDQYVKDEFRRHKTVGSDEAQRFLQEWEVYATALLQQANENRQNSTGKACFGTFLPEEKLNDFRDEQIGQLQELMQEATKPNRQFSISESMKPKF

- Log2 Fold change (vs control) (PPA2 (human)): 0.02 log2
- Log2 Fold change (vs control) (MRPL40 (human)): 0.37 log2
- Log2 Fold change (vs control) (C2orf56 (human)): 0.19 log2
- Log2 Fold change (vs control) (SDHAF3 (human)): -0.03 log2
- Log2 Fold change (vs control) (ECSIT (human)): -1.04 log2
- Log2 Fold change (vs control) (MTRF1 (human)): -1.44 log2
- Log2 Fold change (vs control) (MRPS6 (human)): -0.62 log2
- Log2 Fold change (vs control) (HSDL2 (human)): 0.83 log2
- Log2 Fold change (vs control) (TFAM (human)): 0.63 log2
- Log2 Fold change (vs control) (PDIA3 (human)): -0.41 log2
- Log2 Fold change (vs control) (MRPL14 (human)): 0 log2
- Log2 Fold change (vs control) (ACAA2 (human)): -0.92 log2
- Log2 Fold change (vs control) (NDUFAF3 (human)): 0.46 log2
- Log2 Fold change (vs control) (TAC01 (human)): 0.07 log2
- Log2 Fold change (vs control) (MRPS25 (human)): 0.62 log2
- Log2 Fold change (vs control) (TARS2 (human)): -0.25 log2
- Log2 Fold change (vs control) (FMC1 (human)): 0.41 log2
- Log2 Fold change (vs control) (ATPAF2 (human)): -0.91 log2
- Log2 Fold change (vs control) (T1MM44 (human)): -0.12 log2
- Log2 Fold change (vs control) (ERAL1 (human)): -1.33 log2
- Log2 Fold change (vs control) (RG9MTD1 (human)): 0.47 log2
- Log2 Fold change (vs control) (POLG2 (human)): -0.89 log2
- Log2 Fold change (vs control) (SUCLG1 (human)): -0.28 log2
- Log2 Fold change (vs control) (MRPL19 (human)): -0.97 log2
- Log2 Fold change (vs control) (MRPS15 (human)): -2.32 log2
- Log2 Fold change (vs control) (MRPL48 (human)): 0.15 log2
- Log2 Fold change (vs control) (LETM1 (human)): 1.06 log2
- Log2 Fold change (vs control) (NUDT19 (human)): -0.58 log2
- Log2 Fold change (vs control) (NDUFA2 (human)): -0.23 log2
- Log2 Fold change (vs control) (COX5B (human)): 0.46 log2
- Log2 Fold change (vs control) (CARS2 (human)): -0.38 log2
- Log2 Fold change (vs control) (IARS2 (human)): 0.43 log2
- Log2 Fold change (vs control) (ALDH2 (human)): -0.18 log2
- Log2 Fold change (vs control) (SSBP1 (human)): 0.89 log2
- Log2 Fold change (vs control) (WARS2 (human)): 0.25 log2
- Log2 Fold change (vs control) (MRPL12 (human)): 0.21 log2
- Log2 Fold change (vs control) (ACADSB (human)): -0.2 log2
- Log2 Fold change (vs control) (PET112 (human)): -0.3 log2
- Log2 Fold change (vs control) (NME4 (human)): -0.42 log2
- Log2 Fold change (vs control) (MRPL10 (human)): -0.21 log2
- Log2 Fold change (vs control) (PAM16 (human)): -0.42 log2
- Log2 Fold change (vs control) (NDUFS4 (human)): -0.57 log2
- Log2 Fold change (vs control) (NDUFV3 (human)): 0.05 log2
- Log2 Fold change (vs control) (AARS2 (human)): -0.14 log2
- Log2 Fold change (vs control) (ARG2 (human)): 0.78 log2
- Log2 Fold change (vs control) (LARS2 (human)): 0.1 log2
- Log2 Fold change (vs control) (DCAKD (human)): -3.75 log2
- Log2 Fold change (vs control) (ACADM (human)): -0.4 log2
- Log2 Fold change (vs control) (LYRM7 (human)): 0.23 log2
- Log2 Fold change (vs control) (K1AA0564 (human)): 0.29 log2
- Log2 Fold change (vs control) (SLC27A2 (human)): -3.81 log2
- Log2 Fold change (vs control) (NARS2 (human)): -0.14 log2
- Log2 Fold change (vs control) (PCK2 (human)): -0.51 log2
- Log2 Fold change (vs control) (PDPR (human)): 0.09 log2
- Log2 Fold change (vs control) (COX4I1 (human)): 0.17 log2
- Log2 Fold change (vs control) (NADK2 (human)): 0.06 log2
- Log2 Fold change (vs control) (CHCHD3 (human)): -2.46 log2
- Log2 Fold change (vs control) (IDI1 (human)): 1.28 log2
Substance: FlagBirA-ClpP (Y118A) (from UniProt P06709 1-321; Q16740 57-277) (enzyme)
